Reference: US20250101446A1, “METHOD FOR GENETIC TRANSFORMATION OF PLANT ORGANELLE GENOME AND USES THEREOF” (Solar Grants Biotechnology Inc., priority 2022, published 2025)

Columns and labels:
[1] = system: human metastatic breast cancer cell line MDA-MB-231; assay: IL-6 secretion by MDA-MB-231 cells (P1 stimulation, plantakine pre-incubation; ELISA); type: cell-based; details: pre-incubated 3 h at the indicated concentrations
Description: IL-6 secretion by the human metastatic breast cancer cell line MDA-MB-231 into the conditioned media was measured by ELISA. The cells were pre-incubated for 3 h in the presence of plant-produced recombinant IL-38 or IL-37b at the indicated concentrations (ng/ml) prior to stimulation with peptide P1 (10 mM). PBS (1×) was added to the control. Shown are the average results of 3 independent experiments. ** P<0.01; * P<0.05, compared with the control.
Correct folding of plant-produced IL-38 and IL-37b anti-inflammatory cytokines was assessed by enzyme-linked immunosorbent assay (ELISA) using the DuoSet Human IL-38/IL-1F10 kit (R&D systems) and the Human IL-37/IL-1F7 uncoated ELISA kit (Invitrogen), respectively, following the instructions of the manufacturers. Secreted IL-6 was assessed using the Human IL-6 Uncoated ELISA kit (Invitrogen).

IA-stimulated PBMCs = assay: Counts of significant modulations over all treatments of IA-stimulated PBMCs (LPS or PHA); type: cell-based, human
Description: The bioactivity of our plantakines IL-37b and IL-38 was assessed by monitoring the secretion of 11 cytokines, generally regarded as inflammatory markers, from PBMCs stimulated with an IA. Freshly isolated human PBMCs were subjected to various treatments-combinations of the IAs with the plantakines at different concentrations. Two different model IAs were used, either the bacterial lipopolysaccharides (LPS) or a lectin from Phaseolus vulgaris (phytohaemagglutinin, PHA); each of the IAs was applied onto cells separately, each IA was applied at two concentrations: LPS at 150 and 300 μg/mL; PHA at 5 and 10 μg/mL. Each IA at each concentration was applied in combination with one of the two plantakines, each of them at three different concentrations: 1, 10 and 100 ng/ml of the monomeric forms present in the purified extracts. Also included were treatments comprised of either IA at their lower concentrations, in combination with both plantakines at 10 ng/ml concentration in order to assess possible synergistic effects. Cells with only IAs applied represented the reference (positive controls for each concentration), cells without any treatment represented the basal level (negative control). The levels of eleven different pro-inflammatory cytokines secreted into the medium from the PBMCs-GM-SCF, IFNγ. TNFα, IL-1α, IL-1β, IL-6, IL-8, IL-22, IL12, IL-17 and IL-10 were compared between the treatments and the controls. We applied Generalized Estimating Equation (GEE) model for the statistical data analysis. This statistical approach allows for nested observations and was used to test the effects of the plantakines IL-37b and IL-38 and their dosage in the context of IA-stimulated PBMCs inflammatory responses. […]
Non-linear logarithm transformation was performed to address non-normality of distribution of Luminex-derived numeric data. […] Separate analyses were conducted for each of the 11 monitored cytokines and each inflammatory agent/concentration combination. […]

[2] = separate applications, either IA, all concentrations

B1: plant-produced recombinant human IL-38, mature form C2-W152 with C-terminal 7xHIS tag (ligand)
chain: CSLPMARYYIIKYADQKALYTRDGQLLVGDPVADNCCAEKICILPNRGLARTKVPIFLGIQGGSRCLACVETEEGPSLQLEDVNIEELYKGGEEATRFTFFQSSSGSAFRLEAAAWPGWFLCGPAEPQQPVQLTKESEPSARTKFYFEQSWHHHHHHH
notes: range 2-152; also called rhIL-38; plantakine IL-38
attenuating effect on P1-induced IL-6 secretion (in words) [1]: dose-dependent | attenuated rather than increased secretion of inflammatory cytokines, frequency ratio (IA-stimulated PBMCs; all significant treatments): 1.7 times | number of treatments in which secretion of inflammatory cytokines was increased (IA-stimulated PBMCs; [2]): 22 treatments | number of treatments in which secretion of inflammatory cytokines was suppressed (IA-stimulated PBMCs; [2]): 30 treatments
